Measurements as given in patent US20220348664A1.

Assays:
[1] = molecular target: mouse PD-L1 ECD with mouse Fc tag (W315-mPro1.ECD.mFc) (mouse) (UniProt Q9EP73); assay: ELISA, plate coated with mouse PD-L1 ECD-mFc, HRP anti-human IgG detection
[2] = molecular target: human PD-L1, full length, on CHO-K1 cells (W315-CHO-K1.hPro1.C11) (human) (UniProt Q9NZQ7); assay: FACS on human PD-L1-expressing CHO-K1 cells, PE anti-human IgG detection
[3] = molecular target: cyno PD-L1 protein (SPR analyte) (cynomolgus) (UniProt G7PSE7); assay: SPR (Biacore 8K), antibody captured on anti-human IgG Fc chip, antigen as analyte, 1:1 fit
[4] = molecular target: human PD-L1 protein (SPR analyte) (human) (UniProt Q9NZQ7); assay: as above
[5] = molecular target: mouse PD-L1 protein (SPR analyte) (mouse) (UniProt Q9EP73); assay: as above
[6] = molecular target: cynomolgus PD-L1 ECD with His tag (W315-cynoPro1.ECD.His) (cynomolgus) (UniProt G7PSE7); assay: ELISA, plate coated with cynomolgus PD-L1 ECD-His, HRP anti-human IgG detection
[7] = molecular target: human PD-L1 ECD with mouse Fc tag (W315-hPro1.ECD.mFc) (human) (UniProt Q9NZQ7); assay: ELISA, plate coated with human PD-L1 ECD-mFc, HRP anti-human IgG detection
[8] = molecular target: human LAG-3 ECD with mouse Fc tag (W339-hPro1.ECD.mFc) (human) (UniProt P18627); assay: FACS competition, blocking of mFc-tagged LAG-3 binding to MHC-II on Raji cells (competitor MHC-II)
[9] = molecular target: human LAG-3 ECD with mouse Fc tag (W339-hPro1.ECD.mFc) (human) (UniProt P18627); assay: ELISA, human LAG-3 ECD-mFc captured by coated goat anti-mouse F(ab)2, HRP anti-human IgG detection
[10] = molecular target: human LAG-3, full length, on cells (W339-FlpIn293.hPro1.A3) (human) (UniProt P18627); assay: FACS on human LAG-3-expressing 293 cells, PE anti-human IgG detection
[11] = molecular target: human LAG-3 protein (SPR analyte) (human) (UniProt P18627); assay: SPR (Biacore 8K), antibody captured on anti-human IgG Fc chip, antigen as analyte, 1:1 fit
[12] = molecular target: human LAG-3 ECD with mouse Fc tag (W339-hPro1.ECD.mFc) (human) (UniProt P18627); assay: ELISA competition, blocking of mouse Fc-tagged LAG-3 binding to coated human FGL-1 (competitor FGL-1)
[13] = molecular target: cynomolgus LAG-3 protein (Sino-90841-C08H) (cynomolgus); assay: ELISA, cynomolgus LAG-3-His captured by coated anti-His, HRP anti-human IgG detection
[14] = molecular target: human LAG-3 ECD with mouse Fc tag (W339-hPro1.ECD.mFc) (human) (UniProt P18627); assay: FACS competition: antibody pre-incubated with mFc-tagged LAG-3, binding of LAG-3 to MHC-II on Raji cells detected with anti-mouse IgG Fc-PE; Top is the upper plateau of the LAG-3 signal

human LAG-3 protein (SPR analyte) (human), sequence (P18627 23-450 limits assumed): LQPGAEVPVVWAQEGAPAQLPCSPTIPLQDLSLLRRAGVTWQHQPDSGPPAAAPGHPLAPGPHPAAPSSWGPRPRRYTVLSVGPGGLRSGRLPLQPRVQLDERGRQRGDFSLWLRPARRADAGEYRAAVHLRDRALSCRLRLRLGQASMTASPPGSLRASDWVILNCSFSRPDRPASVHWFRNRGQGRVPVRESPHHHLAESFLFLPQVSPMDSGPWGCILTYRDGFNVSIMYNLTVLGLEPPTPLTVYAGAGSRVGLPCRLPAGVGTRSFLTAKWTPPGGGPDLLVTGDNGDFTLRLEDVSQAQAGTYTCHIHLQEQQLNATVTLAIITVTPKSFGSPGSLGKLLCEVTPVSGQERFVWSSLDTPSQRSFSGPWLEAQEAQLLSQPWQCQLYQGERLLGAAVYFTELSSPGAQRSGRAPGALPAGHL
human LAG-3 ECD with mouse Fc tag (W339-hPro1.ECD.mFc) (human), sequence (P18627 23-450): as the sequence (P18627 23-450 limits assumed) above
human LAG-3, full length, on cells (W339-FlpIn293.hPro1.A3) (human), sequence (P18627 23-525): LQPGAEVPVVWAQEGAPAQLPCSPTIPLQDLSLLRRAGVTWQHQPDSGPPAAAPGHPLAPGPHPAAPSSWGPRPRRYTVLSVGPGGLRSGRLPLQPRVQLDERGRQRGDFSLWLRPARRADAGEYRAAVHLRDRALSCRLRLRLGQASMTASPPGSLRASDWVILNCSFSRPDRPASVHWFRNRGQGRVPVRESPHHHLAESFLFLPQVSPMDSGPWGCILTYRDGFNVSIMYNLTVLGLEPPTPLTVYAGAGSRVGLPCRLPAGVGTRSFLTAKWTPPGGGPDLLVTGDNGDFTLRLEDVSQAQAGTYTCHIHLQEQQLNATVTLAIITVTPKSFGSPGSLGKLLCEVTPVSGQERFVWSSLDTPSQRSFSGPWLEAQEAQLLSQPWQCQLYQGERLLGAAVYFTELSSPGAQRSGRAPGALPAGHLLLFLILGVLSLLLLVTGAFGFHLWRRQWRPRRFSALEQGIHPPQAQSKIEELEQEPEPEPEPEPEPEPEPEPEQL
human PD-L1 ECD with mouse Fc tag (W315-hPro1.ECD.mFc) (human), sequence (Q9NZQ7 19-238): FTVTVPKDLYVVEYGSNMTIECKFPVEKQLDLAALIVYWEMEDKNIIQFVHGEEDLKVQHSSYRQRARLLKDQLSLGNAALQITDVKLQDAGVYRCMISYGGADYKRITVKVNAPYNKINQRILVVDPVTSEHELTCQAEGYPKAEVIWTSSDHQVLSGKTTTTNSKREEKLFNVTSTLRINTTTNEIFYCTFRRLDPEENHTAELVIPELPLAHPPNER
human PD-L1, full length, on CHO-K1 cells (W315-CHO-K1.hPro1.C11) (human), sequence (Q9NZQ7 19-290): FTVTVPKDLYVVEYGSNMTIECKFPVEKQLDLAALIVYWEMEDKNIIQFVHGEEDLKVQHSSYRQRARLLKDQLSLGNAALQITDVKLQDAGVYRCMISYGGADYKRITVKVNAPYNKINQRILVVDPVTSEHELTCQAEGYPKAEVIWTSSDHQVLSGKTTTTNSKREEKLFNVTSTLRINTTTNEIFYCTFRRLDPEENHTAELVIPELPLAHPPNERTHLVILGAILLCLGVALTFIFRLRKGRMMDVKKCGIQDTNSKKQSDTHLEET
cynomolgus PD-L1 ECD with His tag (W315-cynoPro1.ECD.His) (cynomolgus), sequence (G7PSE7 entry or part of it): as the sequence (Q9NZQ7 19-238) above, with A33T, A34S, S62N, R68Q, Q82R, F173L, T185A, T192I, H215L counted along it
mouse PD-L1 ECD with mouse Fc tag (W315-mPro1.ECD.mFc) (mouse), sequence (Q9EP73 19-239): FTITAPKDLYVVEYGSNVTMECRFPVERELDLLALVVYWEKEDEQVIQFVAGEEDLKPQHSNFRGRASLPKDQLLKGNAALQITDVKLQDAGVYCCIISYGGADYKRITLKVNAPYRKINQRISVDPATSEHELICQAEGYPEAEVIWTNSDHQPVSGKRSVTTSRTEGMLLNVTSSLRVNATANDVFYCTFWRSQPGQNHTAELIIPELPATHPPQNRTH
mouse PD-L1 protein (SPR analyte) (mouse), sequence (Q9EP73 19-239 limits assumed): as the sequence (Q9EP73 19-239) above
human PD-L1 protein (SPR analyte) (human), sequence (Q9NZQ7 19-238 limits assumed): as the sequence (Q9NZQ7 19-238) above
cyno PD-L1 protein (SPR analyte) (cynomolgus), sequence (G7PSE7 entry or part of it): as the sequence (Q9NZQ7 19-238) above, with A33T, A34S, S62N, R68Q, Q82R, F173L, T185A, T192I, H215L counted along it

WBP315-BMK8 (Atezolizumab) (antibody) gave an EC50 [1] of 0.04 nM, an EC50 [2] of 0.208 nM and a Top [2] of 8790 MFI. For the same substance, the Kd [3] was 6.29 nM, the Kd [4] was 0.0794 nM and the Kd [5] was 2.31 nM. It also gave an EC50 [6] of 0.053 nM, a Top [6] of 1.98 OD450-OD540 and an EC50 [7] of 0.035 nM. It also gave a Top [7] of 2.45 OD450-OD540.
WBP339-BMK1 (25F7) (antibody) gave an IC50 [8] of 1.88 nM, an EC50 [9] of 0.22 nM and an EC50 [10] of 0.237 nM. It also gave a Top [10] of 1180 MFI, a Kd [11] of 0.62 nM and a koff [11] of 0.000315 s⁻¹. It also gave a kon [11] of 508000 M⁻¹ s⁻¹, an IC50 [12] of 6.37 nM and an EC50 [13] of 3.79 nM. For the same substance, the Top [14] was 2910 MFI.
